# Reference: patent US20150044226A1 (SBI BIOTECH, published 2015)
# T1: human PLD4 (phospholipase D4) protein (UniProt Q96BZ4 1-506)
# T1 chain: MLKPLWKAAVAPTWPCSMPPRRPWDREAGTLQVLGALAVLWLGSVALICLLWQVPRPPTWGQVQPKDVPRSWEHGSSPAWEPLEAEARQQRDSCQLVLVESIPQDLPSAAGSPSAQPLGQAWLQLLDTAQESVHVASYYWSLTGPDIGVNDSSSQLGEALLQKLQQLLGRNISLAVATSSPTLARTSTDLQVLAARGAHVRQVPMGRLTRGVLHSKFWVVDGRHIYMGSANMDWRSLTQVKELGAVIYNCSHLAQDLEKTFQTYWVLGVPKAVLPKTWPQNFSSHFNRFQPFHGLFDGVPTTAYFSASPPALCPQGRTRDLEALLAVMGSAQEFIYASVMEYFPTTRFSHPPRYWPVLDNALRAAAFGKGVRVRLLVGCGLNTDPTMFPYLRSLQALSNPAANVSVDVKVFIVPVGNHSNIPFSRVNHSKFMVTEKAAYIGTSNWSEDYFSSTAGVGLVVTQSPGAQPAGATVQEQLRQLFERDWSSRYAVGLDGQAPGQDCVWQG
# T2: cynomolgus monkey PLD4 (cynomolgus monkey, UniProt Q96BZ4 1-506 (human entry))
# T2 construct: also called cynomolgus monkey PLD4 protein; cyno PLD4
# T2 chain: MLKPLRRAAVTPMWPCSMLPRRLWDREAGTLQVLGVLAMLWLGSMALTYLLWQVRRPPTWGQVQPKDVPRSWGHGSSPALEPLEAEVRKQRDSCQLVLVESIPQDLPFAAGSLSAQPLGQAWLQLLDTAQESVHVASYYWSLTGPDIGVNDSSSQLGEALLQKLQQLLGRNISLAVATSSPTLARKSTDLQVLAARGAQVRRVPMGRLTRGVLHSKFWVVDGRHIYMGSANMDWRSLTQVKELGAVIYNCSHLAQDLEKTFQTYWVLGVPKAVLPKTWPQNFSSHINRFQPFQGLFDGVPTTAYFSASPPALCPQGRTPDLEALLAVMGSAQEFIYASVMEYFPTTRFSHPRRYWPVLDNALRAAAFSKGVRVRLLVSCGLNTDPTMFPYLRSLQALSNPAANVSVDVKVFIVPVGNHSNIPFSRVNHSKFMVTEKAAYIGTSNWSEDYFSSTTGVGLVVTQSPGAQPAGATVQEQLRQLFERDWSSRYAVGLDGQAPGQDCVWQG
# T3: rhesus monkey PLD4 (rhesus monkey, UniProt Q96BZ4 1-506 (human entry))
# T3 construct: also called rhesus monkey PLD4 protein
# T3 chain: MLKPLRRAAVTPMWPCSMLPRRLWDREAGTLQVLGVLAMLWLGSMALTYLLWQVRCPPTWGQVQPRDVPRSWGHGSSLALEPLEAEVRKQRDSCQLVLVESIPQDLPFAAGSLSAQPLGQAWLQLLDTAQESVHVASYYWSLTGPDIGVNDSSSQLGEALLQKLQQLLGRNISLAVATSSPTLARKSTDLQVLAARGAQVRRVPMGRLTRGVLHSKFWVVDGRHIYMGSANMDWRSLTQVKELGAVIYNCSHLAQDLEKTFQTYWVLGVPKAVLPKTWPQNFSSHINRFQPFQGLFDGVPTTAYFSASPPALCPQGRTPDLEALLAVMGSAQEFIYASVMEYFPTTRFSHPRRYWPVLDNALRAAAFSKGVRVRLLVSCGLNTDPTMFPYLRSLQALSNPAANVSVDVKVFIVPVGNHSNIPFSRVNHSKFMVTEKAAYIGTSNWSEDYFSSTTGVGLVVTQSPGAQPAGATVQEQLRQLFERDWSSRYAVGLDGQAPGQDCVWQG
# T4: human PLD4 (phospholipase D4) protein (human, UniProt Q96BZ4 1-506)
# T4 construct: Type II transmembrane protein, 506 a.a; also called hPLD4; HuPLD4
# T4 sequence: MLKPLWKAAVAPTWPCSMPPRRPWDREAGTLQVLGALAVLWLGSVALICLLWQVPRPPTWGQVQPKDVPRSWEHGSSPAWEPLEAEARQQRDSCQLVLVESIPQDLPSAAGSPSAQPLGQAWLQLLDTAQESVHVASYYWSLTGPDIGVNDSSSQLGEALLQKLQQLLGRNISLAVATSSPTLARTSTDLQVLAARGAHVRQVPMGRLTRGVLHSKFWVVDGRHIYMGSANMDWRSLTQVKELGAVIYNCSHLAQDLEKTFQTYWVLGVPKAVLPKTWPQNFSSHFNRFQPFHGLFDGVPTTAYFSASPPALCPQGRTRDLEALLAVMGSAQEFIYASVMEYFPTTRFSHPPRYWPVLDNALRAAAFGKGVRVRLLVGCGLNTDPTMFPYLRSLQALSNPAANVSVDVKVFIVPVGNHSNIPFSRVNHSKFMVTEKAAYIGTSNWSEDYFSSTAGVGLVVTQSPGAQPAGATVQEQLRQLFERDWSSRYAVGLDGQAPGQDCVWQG
# Legend:
# [1] = molecular target: T1, human PLD4 (phospholipase D4) protein; experiment: binding to human PLD4-CT125 stable cells; apparent Kd
# cynomolgus monkey PLD4 [2] = molecular target: T2, cynomolgus monkey PLD4; experiment: FACS, hybridoma culture supernatant on cynomolgus monkey PLD4-CT125 cells; non-binding implied (10C3 is not among the seven)
# rhesus monkey PLD4 [3] = molecular target: T3, rhesus monkey PLD4; experiment: FACS, hybridoma culture supernatant on rhesus monkey PLD4-293T transient transfectants; non-binding implied (10C3 is not among the seven)
# [4] = molecular target: T4, human PLD4 (phospholipase D4) protein; experiment: FACS titration (0.001 to 30 µg/mL) of purified antibody on human PLD4-CT125 cells, positive cell frequency fitted with GraphPad Prism (FIG. 19)
# Protocol: For binding ability of the purified antibody, human PLD4-CT125 expression stable cell strain was reacted to nearly 100% of the positive staining rate at low concentration to high concentration (0.001 μg/mL to 30 μg/mL) of purified PLD4 antibody concentration. The frequency of staining positive cell and the antibody were data-analyzed using Graph Pad Prism version 5 software, and the dissociation constant molar concentration (Kd value) was computed in nM unit.
# cynomolgus monkey PLD4 [5] = molecular target: T2, cynomolgus monkey PLD4; experiment: FACS, hybridoma culture supernatant on cynomolgus monkey PLD4-CT125 cells; non-binding implied (11D10 is not among the seven)
# rhesus monkey PLD4 [6] = molecular target: T3, rhesus monkey PLD4; experiment: FACS, hybridoma culture supernatant on rhesus monkey PLD4-293T transient transfectants; non-binding implied (11D10 is not among the seven)
# cynomolgus monkey PLD4 [7] = molecular target: T2, cynomolgus monkey PLD4; experiment: FACS, hybridoma culture supernatant on cynomolgus monkey PLD4-CT125 cells; non-binding implied (8C11 is not among the seven)
# rhesus monkey PLD4 [8] = molecular target: T3, rhesus monkey PLD4; experiment: FACS, hybridoma culture supernatant on rhesus monkey PLD4-293T transient transfectants; non-binding implied (8C11 is not among the seven)
Binder,Kd [1],binding result (cynomolgus monkey PLD4 [2]),binding result (rhesus monkey PLD4 [3]),Kd [4],binding result (cynomolgus monkey PLD4 [5]),binding result (rhesus monkey PLD4 [6]),binding result (cynomolgus monkey PLD4 [7]),binding result (rhesus monkey PLD4 [8])
"anti-PLD4 mouse 10C3 antibody (antibody, mouse IgG2a, V domains shown, Tested as hybridoma culture supernatant and as purified antibody) VH: EVQLVESGGDLVRPGGSLKLSCAASGFSFSSYGMSWFRQTPDKRLEWVATISSGGSYIYYPESVKGRFTISRDNARNILYLQMSSLKSEDTAMYYCVRLYGGRRGYGLDYWGQGTSVTVSS VL: EIVMTQAAFSNPVTLGTSASISCRSSKSLLHSDGITYLYWYLQKPGQSPQLLIYQMSNLASGVPDRFSSSGSGTDFTLRISRVEAEDVGVYYCAQNLELYTFGGGTKLEIKR",0.228 nM,no binding,no binding,≤ 1 nM,,,,
"anti-PLD4 mouse 11D10 antibody (antibody, mouse IgG2b, V domains shown, Tested as hybridoma culture supernatant and as purified antibody) VH: EVQLVESGGDLVRPGGSLKLSCAASGFSFSSYGMSWFRQTPDKRLEWVATISSGGSYIYYPESVKGRFTISRDNARNILYLQMSSLKSEDTAMYYCVRLYGGRRGYGLDYWGQGTSVTVSS VL: EIVMTQAAFSNPVTLGTSASISCRSSKSLLHSDGITYLYWYLQKPGQSPQLLIYQMSNLASGVPDRFSSSGSGTDFTLRISRVEAEDVGVYYCAQNLELYTFGGGTKLEIKR",0.192 nM,,,≤ 1 nM,no binding,no binding,,
"anti-PLD4 mouse 8C11 antibody (antibody, mouse IgG2b, V domains shown, Tested as hybridoma culture supernatant and as purified antibody) VH: QVQLQQSGAELVKPGASVKLSCKASGYTFTSYYLYWVRQRPGQGLEWIGLINPTNSDTIFNEKFKSKATLTVDKSSSTAYMQLSSLTSEDSAVYYCTREGGYGYGPFAYWGQGTLVTVSA VL: DVVMTQTPLSLPVSLGDQASISCTSSQTLVHSNGNTYLHWYLQKPGQSPKLLIYKVSNRFSGVPDRFSGSGSGTDFTLKISRVEAEDLGVYFCSHSTHVPFTFGSGTKLEIKR",0.085 nM,,,≤ 1 nM,,,no binding,no binding
